In patent publication US20140087995A1 (published 2014):
Numbered stars: 1 amine (or outer) side, 2 acyl side, 3 side chain; on linkers, the order of the positions; unused ones are H or OH. Bridge positions count the residues as written; N and C are the ends. Side chains are listed from the residue outwards. Ends that are not written are not given here. * marks the point of attachment. C20 diacid = O=C(O)CCCCCCCCCCCCCCCCCCC(=O)*; γGlu = O=C(O)[C@H](CCC(=O)[*:2])N[*:1]

T1: human amylin receptor (amylin 3(a) receptor: human calcitonin receptor plus RAMP-3) (human, UniProt P30988 25-474; O60896 24-148, limits assumed)
T1 sequence (looked up) 1: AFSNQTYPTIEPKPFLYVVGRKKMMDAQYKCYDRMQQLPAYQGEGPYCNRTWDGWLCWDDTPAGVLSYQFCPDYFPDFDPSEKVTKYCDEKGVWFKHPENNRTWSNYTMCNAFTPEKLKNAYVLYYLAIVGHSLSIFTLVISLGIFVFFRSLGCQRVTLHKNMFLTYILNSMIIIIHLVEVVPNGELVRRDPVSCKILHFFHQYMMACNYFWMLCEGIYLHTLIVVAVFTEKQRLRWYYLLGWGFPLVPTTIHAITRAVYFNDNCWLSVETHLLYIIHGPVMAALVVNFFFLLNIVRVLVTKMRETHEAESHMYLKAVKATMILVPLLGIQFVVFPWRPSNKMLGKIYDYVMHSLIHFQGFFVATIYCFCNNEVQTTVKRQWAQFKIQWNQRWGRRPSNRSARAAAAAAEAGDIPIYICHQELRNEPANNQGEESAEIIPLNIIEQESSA
T1 sequence (looked up) 2: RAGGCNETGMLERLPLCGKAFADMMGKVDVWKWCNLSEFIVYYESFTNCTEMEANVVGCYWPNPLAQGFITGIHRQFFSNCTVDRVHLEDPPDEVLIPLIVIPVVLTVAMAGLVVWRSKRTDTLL

T2: human calcitonin receptor (human, UniProt P30988 25-474)
T2 sequence (looked up): T1 sequence (looked up) 1

B1: N^ε1-[(4S)-4-carboxy-4-[[(4S)-4-carboxy-4-(19-carboxynonadecanoylamino)butanoyl]amino]butanoyl]-[Asp14,Arg17,Pro21,Pro27,Asp35]-h-amylin (peptide)
peptide: K([γGlu-γGlu-C20 diacid])CNTATCATQRLADFLRHSSPNFGAIPSSTNVGSDTY-NH2
modifications: disulfide 2-7; N-terminus assumed
SMILES: CC[C@H](C)[C@H](NC(=O)[C@H](C)NC(=O)CNC(=O)[C@H](Cc1ccccc1)NC(=O)[C@H](CC(N)=O)NC(=O)[C@@H]1CCCN1C(=O)[C@H](CO)NC(=O)[C@H](CO)NC(=O)[C@H](Cc1c[nH]cn1)NC(=O)[C@H](CCCNC(=N)N)NC(=O)[C@H](CC(C)C)NC(=O)[C@H](Cc1ccccc1)NC(=O)[C@H](CC(=O)O)NC(=O)[C@H](C)NC(=O)[C@H](CC(C)C)NC(=O)[C@H](CCCNC(=N)N)NC(=O)[C@H](CCC(N)=O)NC(=O)[C@@H](NC(=O)[C@H](C)NC(=O)[C@@H]1CSSC[C@H](NC(=O)[C@@H](N)CCCCNC(=O)CC[C@H](NC(=O)CC[C@H](NC(=O)CCCCCCCCCCCCCCCCCCC(=O)O)C(=O)O)C(=O)O)C(=O)N[C@@H](CC(N)=O)C(=O)N[C@@H]([C@@H](C)O)C(=O)N[C@@H](C)C(=O)N[C@@H]([C@@H](C)O)C(=O)N1)[C@@H](C)O)C(=O)N1CCC[C@H]1C(=O)N[C@@H](CO)C(=O)N[C@@H](CO)C(=O)N[C@H](C(=O)N[C@@H](CC(N)=O)C(=O)N[C@H](C(=O)NCC(=O)N[C@@H](CO)C(=O)N[C@@H](CC(=O)O)C(=O)N[C@H](C(=O)N[C@@H](Cc1ccc(O)cc1)C(N)=O)[C@@H](C)O)C(C)C)[C@@H](C)O
notes: Synthetic acylated analogue of human amylin; also called compound 2
B2: N^ε1-[(4S)-4-carboxy-4-[[(4S)-4-carboxy-4-(19-carboxynonadecanoylamino)butanoyl]amino]butanoyl]-[Asp14,Arg17,Pro22,Pro26,Asp35]-h-amylin (peptide)
peptide: K([γGlu-γGlu-C20 diacid])CNTATCATQRLADFLRHSSNPFGAPLSSTNVGSDTY-NH2
modifications: disulfide 2-7; N-terminus assumed
SMILES: CC(C)C[C@H](NC(=O)[C@H](CCCNC(=N)N)NC(=O)[C@H](CCC(N)=O)NC(=O)[C@@H](NC(=O)[C@H](C)NC(=O)[C@@H]1CSSC[C@H](NC(=O)[C@@H](N)CCCCNC(=O)CC[C@H](NC(=O)CC[C@H](NC(=O)CCCCCCCCCCCCCCCCCCC(=O)O)C(=O)O)C(=O)O)C(=O)N[C@@H](CC(N)=O)C(=O)N[C@@H]([C@@H](C)O)C(=O)N[C@@H](C)C(=O)N[C@@H]([C@@H](C)O)C(=O)N1)[C@@H](C)O)C(=O)N[C@@H](C)C(=O)N[C@@H](CC(=O)O)C(=O)N[C@@H](Cc1ccccc1)C(=O)N[C@@H](CC(C)C)C(=O)N[C@@H](CCCNC(=N)N)C(=O)N[C@@H](Cc1c[nH]cn1)C(=O)N[C@@H](CO)C(=O)N[C@@H](CO)C(=O)N[C@@H](CC(N)=O)C(=O)N1CCC[C@H]1C(=O)N[C@@H](Cc1ccccc1)C(=O)NCC(=O)N[C@@H](C)C(=O)N1CCC[C@H]1C(=O)N[C@@H](CC(C)C)C(=O)N[C@@H](CO)C(=O)N[C@@H](CO)C(=O)N[C@H](C(=O)N[C@@H](CC(N)=O)C(=O)N[C@H](C(=O)NCC(=O)N[C@@H](CO)C(=O)N[C@@H](CC(=O)O)C(=O)N[C@H](C(=O)N[C@@H](Cc1ccc(O)cc1)C(N)=O)[C@@H](C)O)C(C)C)[C@@H](C)O
notes: Synthetic acylated analogue of human amylin; also called compound 3

How the values were obtained:
[1] = target: T1, human amylin receptor (amylin 3(a) …); assay: cell-based or functional assay
[2] = target: T2, human calcitonin receptor; assay: cell-based or functional assay

Row | Binder | Ratio hCT/hAmylin funct. [1] | hAmylin-R funct. EC50 [1] | hCTR funct. EC50 [2]
1 | B1 | 16.4 ratio | 0.182 nM | 3 nM
2 | B2 | 6.7 ratio | 0.205 nM | 1.38 nM
